From article PMC2435421

Target: H-2D^b on RMA-S cells (mouse (endogenous in RMA-S))
Assay: flow cytometry on cells

## gp33-wt, LCMV wild-type peptide antigen (gp33 residues 33-41)
  half-life of the peptide-MHC complex (Peptide stability): > 1 h
